This note sets out measurements from PMC2995471, “Identification of amino acid residues in protein SRP72 required for binding to a kinked 5e motif of the human signal recognition particle RNA”.

Holding throughout (test): Ni-NTA magnetic bead pull-down; EMSA: 50 mM Tris-HCl pH 7.9, 300 mM KOAc, 5 mM MgCl2, 16% glycerol, 10 min 37 C; bead pull-down: 82.5 ng 5e RNA, 0.056-1.8 uM protein, eluted with 250 mM imidazole (binding buffer not given, as in ref 16)
One series deals with T1, 72h M580A (human, UniProt O76094 531-590, M580A).
T1 sequence: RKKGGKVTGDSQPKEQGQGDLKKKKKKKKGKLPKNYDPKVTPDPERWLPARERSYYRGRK
To be noted: protein: recombinant; tags: His6; hairpin with 11-nt 5e internal motif (K-turn).

In the next series the target is T2, 72h del 555-KK-556 (human, UniProt O76094 531-590, del555-556).
T2 sequence: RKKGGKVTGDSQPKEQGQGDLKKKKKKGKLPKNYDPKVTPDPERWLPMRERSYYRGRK
To be noted: protein: recombinant; tags: His6; hairpin with 11-nt 5e internal motif (K-turn).

The next series has as its target T3, 72h 585-YY-586 to AA (human, UniProt O76094 531-590, Y585A;Y586A).
T3 sequence: T1 sequence with A50M, Y55A, Y56A
To be noted: protein: recombinant; tags: His6; hairpin with 11-nt 5e internal motif (K-turn).

The target in another series is T4, 72h 579-PM-580 to AA (human, UniProt O76094 531-590, P579A;M580A).
T4 sequence: T1 sequence with P49A
To be noted: protein: recombinant; tags: His6; hairpin with 11-nt 5e internal motif (K-turn).

A further series concerns the target T5, 72h P579A (human, UniProt O76094 531-590, P579A).
T5 sequence: T1 sequence with P49A, A50M
To be noted: protein: recombinant; tags: His6; hairpin with 11-nt 5e internal motif (K-turn).

For another series, the target named is T6, 72h 581-RE-582 to AA (human, UniProt O76094 531-590, R581A;E582A).
T6 sequence: T1 sequence with A50M, R51A, E52A
To be noted: protein: recombinant; tags: His6; hairpin with 11-nt 5e internal motif (K-turn).

The next series concerns the target T7, 72h 589-RK-590 to AA (human, UniProt O76094 531-590, R589A;K590A).
T7 sequence: T1 sequence with A50M, R59A, K60A
To be noted: protein: recombinant; tags: His6; hairpin with 11-nt 5e internal motif (K-turn).

A further series concerns the target T8, 72g (human, UniProt O76094 531-585).
T8 sequence: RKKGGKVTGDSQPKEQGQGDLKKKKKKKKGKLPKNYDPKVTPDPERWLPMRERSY
To be noted: protein: recombinant; tags: N-terminal His6; hairpin with 11-nt 5e internal motif (K-turn).

A further series has as its target T9, 72j (human, UniProt O76094 541-590).
T9 chain: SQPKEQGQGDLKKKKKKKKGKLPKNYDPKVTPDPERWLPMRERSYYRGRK
To be noted: protein: recombinant; tags: His6; hairpin with 11-nt 5e internal motif (K-turn).

The target of another series is T10, 72h 577-WL-578 to AA (human, UniProt O76094 531-590, W577A;L578A).
T10 sequence: T1 sequence with W47A, L48A, A50M
To be noted: protein: recombinant; tags: His6; hairpin with 11-nt 5e internal motif (K-turn).

The next series has as its target T11, 72h (human, UniProt O76094 531-590).
T11 sequence: T1 sequence with A50M
To be noted: protein: recombinant; tags: His6; hairpin with 11-nt 5e internal motif (K-turn).

The next series has as its target T12, 72k (human, UniProt O76094 545-590).
T12 chain: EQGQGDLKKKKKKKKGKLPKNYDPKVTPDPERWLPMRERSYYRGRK
To be noted: protein: recombinant; tags: His6; hairpin with 11-nt 5e internal motif (K-turn).

The target in another series is T13, 72e (human, UniProt O76094 531-617).
T13 sequence: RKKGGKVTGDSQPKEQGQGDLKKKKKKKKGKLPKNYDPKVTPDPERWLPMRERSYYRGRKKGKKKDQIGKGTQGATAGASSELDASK
To be noted: protein: recombinant; tags: N-terminal His6; hairpin with 11-nt 5e internal motif (K-turn).

Another series addresses T14, 72f (human, UniProt O76094 531-587).
T14 sequence: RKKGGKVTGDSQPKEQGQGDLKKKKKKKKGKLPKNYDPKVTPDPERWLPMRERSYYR
To be noted: protein: recombinant; tags: N-terminal His6; hairpin with 11-nt 5e internal motif (K-turn).

The target in a further series is T15, 72h 583-RS-584 to AA (human, UniProt O76094 531-590, R583A;S584A).
T15 sequence: T1 sequence with A50M, R53A, S54A
To be noted: protein: recombinant; tags: His6; hairpin with 11-nt 5e internal motif (K-turn).

A further series addresses T16, 72h 587-RG-588 to AA (human, UniProt O76094 531-590, R587A;G588A).
T16 sequence: T1 sequence with A50M, R57A, G58A
To be noted: protein: recombinant; tags: His6; hairpin with 11-nt 5e internal motif (K-turn).

Where a chain is given by its changes, count along the chain named.

As for GGUCCGGGUGUCCGCACUAGGGAGCUAGUGGGAUCGCGCCUGGAUC (structured_RNA) [5e SRP RNA], the binding signal in the series with 72h M580A was 100 ± 4 % of wild-type binding; in the series with 72h del 555-KK-556, 46 ± 12 % of wild-type binding; with 72h 585-YY-586 to AA, 60 ± 3 % of wild-type binding; with 72h 579-PM-580 to AA it was 14 ± 9 % of wild-type binding; with 72h P579A it was 26 ± 1 % of wild-type binding; with 72h 581-RE-582 to AA it was 69 ± 14 % of wild-type binding. Besides, the binding result in the series with 72h 589-RK-590 to AA is recorded as “binds”; with 72g, “no binding”; with 72j, “binds”; with 72h 577-WL-578 to AA, “no binding”; with 72h, “binds”; with 72k it was “binds”. For the same molecule, the binding result with 72e was “binds”; with 72f, “binds”; with 72h 583-RS-584 to AA, “no binding”; in the series with 72h 587-RG-588 to AA, “binds”.
